From doi:10.1101/2020.11.19.389494, “The structural mechanism underlying the antithetic effect of homologous RND1 and RhoD GTPases in plexin regulation” (bioRxiv, 2020)

Biological target: T1, human RhoD (residues 8-194) with the Q75L mutation, bound to GMP-PNP (human, UniProt O00212 8-194, Q75L)
T1 construct: Loaded with the GTP analogue GMP-PNP and Mg2+ before crystallisation; His6 tag removed with human rhinovirus 3C protease; also called GMP-PNP-loaded RhoD; source: E. coli BL21 (DE3), purified (HisTrap, Resource Q, Superdex 75); not shown: His6, N-terminal, cleaved
T1 sequence (looked up): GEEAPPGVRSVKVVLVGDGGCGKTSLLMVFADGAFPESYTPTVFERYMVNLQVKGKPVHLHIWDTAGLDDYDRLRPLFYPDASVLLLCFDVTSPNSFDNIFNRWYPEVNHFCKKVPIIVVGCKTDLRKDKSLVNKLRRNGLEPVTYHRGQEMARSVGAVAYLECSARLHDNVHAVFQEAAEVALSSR
Assay: crystal structure; Plexin B2 (1274-1842) and GMP-PNP-loaded RhoD mixed at 1:1 molar ratio, 6 mg/mL total; crystals grown over a month at 20 °C in 0.2 M MgCl2, 22 % PEG3350, 100 mM MIB pH 6.8; plexin B2 degraded to the RBD in the drops; 3.1 Å, molecular replacement
Conditions: both partners purified

- binding result: binds
B1: mouse plexin B2 Rho GTPase binding domain (RBD) (domain or fragment, UniProt B2RXS4 1463-1565, looked up)
chain: EYAPLTVSVIVQDEGIDAIPVKVLNCDTISQVKEKIIDQVYRTQPCSCWPKPDSVVLEWRPGSTAQILSDLDLTSQREGRWKRINTLMHYNVRDGATLILSKV
notes: Plexin B2, mouse; Expressed as the intracellular region without the juxtamembrane region (residues 1274-1842); it degraded in the crystallization drops and the crystal held only the RBD, of which residues 1463-1509 and 1510-1565 are described in the model; In the crystal two RBD chains form a domain-swapped dimer (swap between residues 1509 and 1510), which the authors regard as a crystallization …
